From publication PMC10046250 come the findings set out here.

This assay addresses T1, mouse cholecystokinin 1 receptor (mouse (endogenous in isolated mouse pancreatic acini)) (UniProt O08786).
T1 sequence: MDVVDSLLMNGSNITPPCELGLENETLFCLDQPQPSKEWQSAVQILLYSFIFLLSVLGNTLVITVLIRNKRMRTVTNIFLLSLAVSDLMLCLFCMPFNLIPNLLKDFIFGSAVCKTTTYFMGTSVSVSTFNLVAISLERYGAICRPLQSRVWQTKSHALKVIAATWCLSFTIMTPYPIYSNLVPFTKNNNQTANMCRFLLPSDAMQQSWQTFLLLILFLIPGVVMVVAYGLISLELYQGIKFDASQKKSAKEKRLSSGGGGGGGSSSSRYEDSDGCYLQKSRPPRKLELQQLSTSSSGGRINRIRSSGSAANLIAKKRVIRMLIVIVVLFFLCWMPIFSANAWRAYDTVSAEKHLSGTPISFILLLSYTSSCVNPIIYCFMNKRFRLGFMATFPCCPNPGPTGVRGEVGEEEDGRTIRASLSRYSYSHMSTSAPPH

Where no end group is shown, it is not given here. [ ]: non-standard residue; d: D form. sY = N[C@@H](Cc1ccc(OS(=O)(=O)O)cc1)C(=O)O

In the case of D[sY]MGWMDF-NH2 (ends and bridges not checked) [Sulfated cholecystokinin octapeptide], the CCK concentration needed to induce regular cytosolic calcium oscillations (Fura-2 imaging) in perifused isolated mouse pancreatic acini (data in Figure S1) amounted to 10 pM.
